According to US20240018240A1 (Hoffmann-La Roche, published 2024):

Legend:
[1] = biological target: T1, Human CD3ε stalk-Fc(knob)-Avi/CD3δ stalk-Fc(hole) (human); assay: SPR (Biacore T200, 25°C); monovalent IgG captured by anti-PG antibody on C1 chip, CD3ε/δ-Fc as analyte; 1:1 Langmuir fit; triplicates
T1 construct: Heterodimer of CD3 delta and CD3 epsilon ectodomains fused to a human Fc domain with knob-into-hole modifications and C-terminal Avi-tag; also called human CD3ε/δ; CD3ε/δ
Method: (§1) Kinetic constants were derived using the Biacore T200 Evaluation Software (GE Healthcare Life Sciences), to fit rate equations for 1:1 Langmuir binding by numerical integration. The half-life (t_{1/2}) of the interaction was calculated using the formula t_{1/2}=ln 2/koff.
(§2) SPR experiments were performed as described in Example 3, with the monovalent IgG molecules prepared in Example 6.
(§3) To analyze the interaction to CD3, IgG molecules were captured for 240 s at 50 nM with a flow rate of 5 μl/min. Human and cynomolgus CD3ε stalk-Fc(knob)-Avi/CD3δ-stalk-Fc(hole) were passed at a concentration of 0.061-250 nM with a flow rate of 30 μl/min through the flow cells for 300 s. The dissociation was monitored for 800 s.

[2] = biological target: T1, Human CD3ε stalk-Fc(knob)-Avi/CD3δ …; assay: SPR (Biacore T200, 25°C); monovalent IgG captured by anti-PG antibody on C1 chip, CD3ε/δ-Fc as analyte; t1/2 = ln 2/koff
Method: as §1, §2, §3

[3] = biological target: T1, Human CD3ε stalk-Fc(knob)-Avi/CD3δ …; assay: SPR (Biacore T200, 25°C); TCB captured by anti-PG antibody on C1 chip, CD3ε/δ-Fc as analyte; t1/2 = ln 2/koff
Description: (§4) For affinity measurements, TCB molecules were captured on a C1 sensorchip (GE Healthcare) surface with immobilized anti-Fc (P329G) IgG (an antibody that specifically binds human IgG₁ Fc (P329G); “anti-PG antibody”—see WO 2017/072210, incorporated herein by reference). The experimental setup is schematically depicted in FIG. 3. Capture IgG was coupled to the sensorchip surface by direct immobilization of around 400 resonance units (RU) using the standard amine coupling kit (GE Healthcare Life Sciences).
(§5) To analyze the interaction to CD3, TCB molecules were captured for 80 s at 25 nM with a flow rate of 10 μl/min. Human and cynomolgus CD3ε stalk-Fc(knob)-Avi/CD3δ stalk-Fc(hole) (CD3ε/δ, see SEQ ID NOs 24 and 25 (human) and SEQ ID NOs 26 and 27 (cynomolgus)) were passed at a concentration of 0.122-125 nM with a flow rate of 30 μl/min through the flow cells for 300 s. The dissociation was monitored for 800 s.
as §1

[4] = biological target: T1, Human CD3ε stalk-Fc(knob)-Avi/CD3δ …; assay: SPR (Biacore T200, 25°C); TCB captured by anti-PG antibody on C1 chip, CD3ε/δ-Fc as analyte; 1:1 Langmuir fit
Description: as §4, §5, §1

[5] = biological target: T1, Human CD3ε stalk-Fc(knob)-Avi/CD3δ …; assay: SPR (Biacore T200); biotinylated human CD3ε/δ on SA chip, TCB injected at 2 µg/ml; normalised to anti-huIgG capture, relative to the non-stressed sample
Method: In order to assess the effect of the deamidation site removal and its effect on the stability of the antibodies, the anti-CD3 antibodies (in TCB format) were incubated for 14 days at 37° C., pH 7.4 and at 40° C., pH 6 and further analyzed by SPR for their binding capability to human CD3ε/δ. Samples stored at −80° C. pH 6 were used as reference. The reference samples and the samples stressed at 40° C. were in 20 mM His, 140 mM NaCl, pH 6.0, and the samples stressed at 37° C. in PBS, pH 7.4, all at a concentration of 1.0 mg/ml. After the stress period (14 days) samples in PBS were dialyzed back to 20 mM His, 140 mM NaCl, pH 6.0 for further analysis.
All SPR experiments were performed on a Biacore T200 instrument (GE Healthcare) at 25° C. with HBS-P+(10 mM HEPES, 150 mM NaCl pH 7.4, 0.05% Surfactant P20) as running and dilution buffer. Biotinylated human CD3ε/δ (see Example 3, SEQ ID NOs 24 and 25) as well as biotinylated anti-huIgG (Capture Select, Thermo Scientific, #7103262100) were immobilized on a Series S Sensor Chip SA (GE Healthcare, #29104992), resulting in surface densities of at least 1000 resonance units (RU). Anti-CD3 antibodies with a concentration of 2 μg/ml were injected for 30 s at a flow rate of 5 μl/min, and dissociation was monitored for 120 s. The surface was regenerated by injecting 10 mM glycine pH 1.5 for 60 s. Bulk refractive index differences were corrected by subtracting blank injections and by subtracting the response obtained from a blank control flow cell. For evaluation, the binding response 5 seconds after injection end was taken. To normalize the binding signal, the CD3 binding was divided by the anti-huIgG response (the signal (RU) obtained upon capture of the CD3 antibody on the immobilized anti-huIgG antibody). The relative binding activity was calculated by referencing each temperature stressed sample to the corresponding, non-stressed sample.

Kd [1]	koff [1]	kon [1]	t1/2 [2]	t1/2 [3]	Kd [4]	koff [4]	kon [4]	binding activity [%], 2 weeks at pH 6.0/40°C [5]	binding activity [%], 2 weeks at pH 7.4/37°C [5]	Binder
4.94 nM	0.0029 s⁻¹	587000 M⁻¹ s⁻¹	3.98 min	–	–	–	–	–	–	anti-CD3 antibody CD3orig in monovalent human IgG1 format (antibody, also called CD3orig (in monovalent IgG format)) heavy: not shown DKTHTCPPCPAPEAAGGPSVFLFPPKPKDTLMISRTPEVTCVVVDVSHEDPEVKFNWYVDGVEVHNAKTKPREEQYNSTYRVVSVLTVLHQDWLNGKEYKCKVSNKALGAPIEKTISKAKGQPREPQVCTLPPSRDELTKNQVSLSCAVKGFYPSDIAVEWESNGQPENNYKTTPPVLDSDGSFFLVSKLTVDKSRWQQGNVFSCSVMHEALHNHYTQKSLSLSP light: EVQLLESGGGLVQPGGSLRLSCAASGFTFSTYAMNWVRQAPGKGLEWVSRIRSKYNNYATYYADSVKGRFTISRDDSKNTLYLQMNSLRAEDTAVYYCVRHGNFGNSYVSWFAYWGQGTLVTVSSASVAAPSVFIFPPSDEQLKSGTASVVCLLNNFYPREAKVQWKVDNALQSGNSQESVTEQDSKDSTYSLSSTLTLSKADYEKHKVYACEVTHQGLSSPVTKSFNRGEC
–	–	–	–	3.42 min	6.54 nM	0.00338 s⁻¹	517000 M⁻¹ s⁻¹	95%	65%	TYRP1 T-cell bispecific antibody (TCB) comprising anti-CD3 antibody CD3orig (bispecific antibody, human IgG1, kappa, L234A L235A, 2+1 IgG CrossFab, inverted, with charge modifications; human IgG1 Fc with knob-into-hole and P329G LALA; also called CD3orig (in TCB format)) heavy 1: not shown heavy 2: QVQLVQSGAEVKKPGASVKVSCKASGFNIKDYFLHWVRQAPGQGLEWMGWINPDNGNTVYAQKFQGRVTMTADTSTSTVYMELSSLRSEDTAVYYCTRRDYTYEKAALDYWGQGTLVTVSSASTKGPSVFPLAPSSKSTSGGTAALGCLVEDYFPEPVTVSWNSGALTSGVHTFPAVLQSSGLYSLSSVVTVPSSSLGTQTYICNVNHKPSNTKVDEKVEPKSCDKTHTCPPCPAPEAAGGPSVFLFPPKPKDTLMISRTPEVTCVVVDVSHEDPEVKFNWYVDGVEVHNAKTKPREEQYNSTYRVVSVLTVLHQDWLNGKEYKCKVSNKALGAPIEKTISKAKGQPREPQVCTLPPSRDELTKNQVSLSCAVKGFYPSDIAVEWESNGQPENNYKTTPPVLDSDGSFFLVSKLTVDKSRWQQGNVFSCSVMHEALHNHYTQKSLSLSP light 1: DIQMTQSPSSLSASVGDRVTITCRASGNIYNYLAWYQQKPGKVPKLLIYDAKTLADGVPSRFSGSGSGTDFTLTISSLQPEDVATYYCQHFWSLPFTFGQGTKLEIKRTVAAPSVFIFPPSDRKLKSGTASVVCLLNNFYPREAKVQWKVDNALQSGNSQESVTEQDSKDSTYSLSSTLTLSKADYEKHKVYACEVTHQGLSSPVTKSFNRGEC light 2: EVQLLESGGGLVQPGGSLRLSCAASGFTFSTYAMNWVRQAPGKGLEWVSRIRSKYNNYATYYADSVKGRFTISRDDSKNTLYLQMNSLRAEDTAVYYCVRHGNFGNSYVSWFAYWGQGTLVTVSSASVAAPSVFIFPPSDEQLKSGTASVVCLLNNFYPREAKVQWKVDNALQSGNSQESVTEQDSKDSTYSLSSTLTLSKADYEKHKVYACEVTHQGLSSPVTKSFNRGEC
